Measured values published in patent US20160311919A1 (CELLDEX THERAPEUTICS, published 2016).
Where “and” joins values, the source holds several entries; their conditions need not be identical. Identical values can stand only once. Blank lines part the entries; values can stand above or below the binder they belong to.

Assays:
[1] = molecular target: T1, CD3 on purified human T cells (human, UniProt P07766 23-207); assay: flow cytometry on purified human T cells, mouse anti-FLAG mAb then PE goat anti-mouse Ig F(ab')2
T1 construct: whole, on cells; also called CD3/TCR complex
From the text: (Jackson ImmunoResearch, West Grove, Pa.) Ten thousand events were collected and analyzed on a FACSCalibur instrument (Becton Dickinson, Mountain View, Calif.).
To verify binding of the bi-scFv to human CD3 molecules, we used purified human T cells.

[2] = molecular target: T2, GPNMB (CG56972), native full-length protein on the cell surface or in cell lysates (human, UniProt Q14956 23-492); assay: FACS, UACC-62 cells, Ab 1 ug/mL
T2 construct: Endogenous on human tumour cell lines (named under assay); also called CR011 protein; GPNMB antigen
T2 sequence: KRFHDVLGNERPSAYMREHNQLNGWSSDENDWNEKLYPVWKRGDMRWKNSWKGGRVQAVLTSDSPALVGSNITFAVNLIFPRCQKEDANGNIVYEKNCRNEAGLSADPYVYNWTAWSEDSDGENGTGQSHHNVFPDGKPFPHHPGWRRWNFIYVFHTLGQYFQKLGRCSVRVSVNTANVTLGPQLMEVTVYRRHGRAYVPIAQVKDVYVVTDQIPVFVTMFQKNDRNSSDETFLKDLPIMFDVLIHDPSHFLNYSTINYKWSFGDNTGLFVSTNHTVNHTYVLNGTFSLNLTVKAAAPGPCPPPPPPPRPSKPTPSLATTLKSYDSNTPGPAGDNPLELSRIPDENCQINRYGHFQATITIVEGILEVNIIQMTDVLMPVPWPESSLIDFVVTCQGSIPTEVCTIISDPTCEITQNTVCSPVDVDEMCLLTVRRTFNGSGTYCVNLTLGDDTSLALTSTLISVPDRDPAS
Method: Cells were washed twice with PBS (Ca and Mg free), incubated with Versene at 37° C. until cells detached, counted and aliquoted at 1 million cells per assay tube. Cells were then washed twice and resuspended in ice-cold FACS buffer (0.01M HEPES, 0.15M NaCl, 0.1% NaN₃ and 4% FBS). Primary antibody at 1 μg/mL was added to the cells. Cells were incubated on ice for 30 min, washed 2-3 times and resuspended in 1 mL of ice-cold FACS buffer. R-PE-conjugated goat anti-human antibody (Jackson ImmunoResearch Laboratory) at 1:100 dilution was added and cells were incubated on ice for 30 min. After washing 3 times with 1 mL of ice-cold FACS buffer, cells were fixed with 0.5-1 mL of 1% formaldehyde in PBS and analyzed by flow cytometry.

[3] = molecular target: T2, GPNMB (CG56972), native full-length …; assay: cell-based or functional assay
[4] = molecular target: T2, GPNMB (CG56972), native full-length …; assay: cell-based or functional assay; remark: listed apart in the source
[5] = molecular target: T2, GPNMB (CG56972), native full-length …; assay: cell-based or functional assay; remark: listed apart in the source
[6] = molecular target: T2, GPNMB (CG56972), native full-length …; assay: cell-based or functional assay; remark: listed apart in the source
[7] = molecular target: T2, GPNMB (CG56972), native full-length …; assay: cell-based or functional assay; remark: listed apart in the source
[8] = molecular target: T2, GPNMB (CG56972), native full-length …; assay: cell-based or functional assay; remark: listed apart in the source

T1 sequence (P07766 23-207): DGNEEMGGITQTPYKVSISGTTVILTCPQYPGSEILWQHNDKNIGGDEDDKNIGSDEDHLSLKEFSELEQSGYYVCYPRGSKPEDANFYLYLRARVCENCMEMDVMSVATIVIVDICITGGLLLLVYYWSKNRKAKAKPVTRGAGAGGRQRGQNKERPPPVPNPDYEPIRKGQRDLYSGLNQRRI

B2: Mab1.2.2 (antibody, human IgG2, V domains shown)
VH: ITLKESGPTLVKPTQTLTLTCTFSGFSLSAGGVGVGWIRQPPGKALEWLALIYWNDDKRYSPSLRSRLTITKDTSKNQVVLTITNMDPVDTATYYCAHSHYDYDWGSYFDYWGQGTLVTVSS
VL: DIVMTQTPLSLPVTPGEPASISCRSSQSLLDSDDGNTYLDWYLQKPGQSPQLLIYTLSYRASGVPDRFSGSGSGTDFTLNISRVEAEDVGVYYCMQRIEFPITFGQGTRLEIKR
notes: Human IgG2 kappa from XenoMouse XMG2; also called CR011.1.2.2
Geo Mean Ratio (relative to pK16) [2]: 1.24

B3: Mab2.10.2 (antibody, human IgG2, V domains shown)
VH: QLVESGGGVVQPGRSLRLSCAASGFAFSSYGMHWVRQAPGKGLEWVAVISYDGNNKYYADSVKGRFTISRDNSKNTLYLQMNSLRAEDTAVYYCARDLVVRGIRGYYYYFGMDVWGQGTTVTVSS
VL: not shown
notes: Human IgG2 kappa from XenoMouse XMG2; also called CR011.2.10.2
killing of UACC-62 cells with saporin-conjugated secondary antibody, clonogenic, Ab 50 ng/mL [3]: > 70% | Geo Mean Ratio (relative to pK16) [2]: 2.6

B5: CR011-vcMMAE (Mab1.15.1 conjugated to monomethylauristatin E through a valine-citrulline linker) (other)
heavy: QVQLQESGPGLVKPSQTLSLTCTVSGGSISSFNYYWSWIRHHPGKGLEWIGYIYYSGSTYSNPSLKSRVTISVDTSKNQFSLTLSSVTAADTAVYYCARGYNWNYFDYWGQGTLVTVSSASTKGPSVFPLAPCSRSTSESTAALGCLVKDYFPEPVTVSWNSGALTSGVHTFPAVLQSSGLYSLSSVVTVPSSNFGTQTYTCNVDHKPSNTKVDKTVERKCCVECPPCPAPPVAGPSVFLFPPKPKDTLMISRTPEVTCVVVDVSHEDPEVQFNWYVDGVEVHNAKTKPREEQFNSTFRVVSVLTVVHQDWLNGKEYKCKVSNKGLPAPIEKTISKTKGQPREPQVYTLPPSREEMTKNQVSLTCLVKGFYPSDIAVEWESNGQPENNYKTTPPMLDSDGSFFLYSKLTVDKSRWQQGNVFSCSVMHEALHNHYTQKSLSLSPGK
VL: not shown
modifications: vcMMAE on cysteines of reduced disulfides, about 4 drugs per antibody (3.5-4.2); positions not given
IC50 of colony formation (% of control), clonogenic assay, SK-Mel-2 cells with GPNMB knocked down by GPNMB siRNA [4]: 1 µg/mL | IC50 of colony formation (% of control), clonogenic assay, control-siRNA-transfected SK-Mel-2 cells [4]: 0.22 µg/mL | IC50 of colony formation (% of control), clonogenic assay, mock-transfected SK-Mel-2 cells [4]: 0.33 µg/mL | IC50, clonogenic assay with 1.15.1-AE, G361 cells [5]: 1050 ng/mL and 6500 pM | IC50, clonogenic assay with 1.15.1-AE, RPMI-7951 cells [5]: 972 ng/mL and 6000 pM | IC50, clonogenic assay with 1.15.1-AE, SK-Mel 2 cells [5]: 111 ng/mL and 750 pM | IC50, clonogenic assay with 1.15.1-AE, SK-Mel 5 cells [5]: 237 ng/mL and 1600 pM | IC50, clonogenic assay with 1.15.1-AE, UACC-62 cells [5]: 697 ng/mL and 4300 pM | IC50, clonogenic assay with 1.15.1-AE, UACC-257 cells [5]: 825 ng/mL and 5500 pM | IC50, clonogenic assay with 1.15.1-AE, WM-266-4 cells [5]: 345 ng/mL and 2300 pM | CR011-AE IC50, clonogenic assay, SF-268 cells (poor expression) [6]: > 1.5 µg/mL | CR011-AE IC50, clonogenic assay, SF-539 cells [6]: 1.03 µg/mL | CR011-AE IC50, clonogenic assay, SK-MEL-2 cells [6]: 0.303 µg/mL | CR011-AE IC50, clonogenic assay, SNB-78 cells [6]: 0.449 µg/mL | CR011-AE IC50, clonogenic assay, U-118-MG cells [6]: 1.25 µg/mL | CR011-AE IC50, clonogenic assay, XF-498 cells [6]: 0.216 µg/mL | IC50, clonogenic assay with 1.15.1-AE, SR cells [7]: 296 ng/mL and 2000 pM | IC50, clonogenic assay with 1.15.1-AE, THP-1 cells [7]: 207 ng/mL and 1400 pM | IC50, clonogenic assay with 1.15.1-AE, U937 cells [7]: 340 ng/mL and 2400 pM | IC50 of colony formation (% of control), clonogenic assay after 96 h treatment of HEK293 cells transfected with GPNMB; the same conjugate on empty-vector cells prints >1000 [8]: 0.3 µg/mL

B6: Mab1.15.1 (CR011), fully human IgG2 (antibody)
heavy: B5 heavy
VL: not shown
killing of UACC-62 cells with saporin-conjugated secondary antibody, clonogenic, Ab 50 ng/mL [3]: > 70%

Continued, in another order:

binding result [1]: no binding (tested: 5 µg/sample/100 µl)
B1: CR011 scFv (VL-L4-VH) Flag (scFv)
scFv: EIVMTQSPATLSVSPGERATLSCRASQSVDNNLVWYQQKPGQAPRLLIYGASTRATGIPARFSGSGSGTEFTLTISSLQSEDFAVYYCQQYNNWPPWTFGQGTKVEIKLSADDAKKDAAKKDDAKKDDAKKDLQVQLQESGPGLVKPSQTLSLTCTVSGGSISSFNYYWSWIRHHPGKGLEWIGYIYYSGSTYSNPSLKSRVTISVDTSKNQFSLTLSSVTAADTAVYYCARGYNWNYFDYWGQGTLVTVSSASDYKDDDDK
notes: C-terminal Flag tag is within the entry; also called CR011 single chain antibody; CR011 scFv monomer

Geo Mean Ratio (relative to pK16) [2]: 4.46
B4: Mab2.22.1 (antibody, human IgG2, V domains shown)
VH: QVQLEQSGPGLVKPSQNLSLTCTVSGGSISSGGYFWSWIRQHPGKGLEWIGYIYYSGNTYYNPSLKSRVTISVDTSKNQFSLKLSSVTAADTAVYYCARDYYYDTSGFSYRYDWYYGMDVWGQGTTVTVSS
VL: DIQLTQSPSSLSASVGDRVTITCRASQGIRNDLGWYQQKPGKAPKRLIYAASSLQNGVPSRFSGSGSGTEFTLTISSLQPEDFATYYCLQHNTYPAFGQGTKVEIKR
notes: Human IgG2 kappa from XenoMouse XMG2; also called CR011.2.22.1
killing of UACC-62 cells with saporin-conjugated secondary antibody, clonogenic, Ab 50 ng/mL [3]: > 70%
